Laboratory results: patent US11814447B2, “Peptide ligands for binding to EphA2” (BICYCLERD LIMITED, priority 2018, dated 2023)
Starred links: 1 amine or outer side, 2 acyl side, 3 side chain; linkers in the order of their positions; H or OH if unused. Positions of bridges follow the written chain, without caps; N, C: chain ends. Non-standard residues stand in square brackets, D forms with d. Primed or numbered codes have the meaning given here. No end group written: not given here. TBMB′ = 1,3,5-tris(bromomethyl)benzene, 1,3,5-tris(methylene)benzene core, three thioethers to Cys; TATA = O=C(CC[*:1])N1CN(C(=O)CC[*:2])CN(C(=O)CC[*:3])C1; TBMB = c1c(C[*:1])cc(C[*:3])cc1C[*:2]; Sar = CNCC(=O)O

What follows are molecules tested against T1, Human EphA2 (Ecto) (Human, UniProt P29317 24-537) (assay: FP competition, tracer Compound 66). Details: not given.
T1 construct: extracellular domain
T1 sequence (P29317 24-537): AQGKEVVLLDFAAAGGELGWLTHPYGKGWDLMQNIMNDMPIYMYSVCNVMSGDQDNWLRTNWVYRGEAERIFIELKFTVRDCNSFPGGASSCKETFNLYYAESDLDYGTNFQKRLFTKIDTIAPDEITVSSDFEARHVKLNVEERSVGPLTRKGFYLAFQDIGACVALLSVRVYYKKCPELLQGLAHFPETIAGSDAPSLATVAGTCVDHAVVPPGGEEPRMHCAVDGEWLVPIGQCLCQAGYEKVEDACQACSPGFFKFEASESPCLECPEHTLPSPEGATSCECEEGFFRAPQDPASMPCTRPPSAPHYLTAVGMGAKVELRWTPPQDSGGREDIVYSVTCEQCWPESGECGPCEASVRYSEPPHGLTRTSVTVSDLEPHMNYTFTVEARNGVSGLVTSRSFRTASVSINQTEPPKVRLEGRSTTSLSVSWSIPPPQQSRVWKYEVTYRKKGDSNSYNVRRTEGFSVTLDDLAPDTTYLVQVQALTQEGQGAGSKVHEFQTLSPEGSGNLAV
[Sar][Sar]ACPWGAFWCPVNRPGC (linker 4-11-18 via TBMB) [Bicycle Compound 289] gave a Ki of 1100 nM. With [Sar][Sar]ACPWGPAWCPVNRPGC (linker 4-11-18 via TBMB) [Bicycle Compound 83] the Ki was 288 nM. For [Sar][Sar]ACPWGPFWCPVNRAGC (linker 4-11-18 via TBMB) [Bicycle Compound 104], the Ki was 194 nM. [Sar][Sar]ACPWGPFWCPVNRPAC (linker 4-11-18 via TBMB) [Bicycle Compound 111] was tested, and the Ki was 238 nM. [Sar][Sar]ACPWGPFWCPV[dA]RPGC (linker 4-11-18 via TBMB) [Bicycle Compound 102] showed a Ki of 312 nM. Molecule [Sar][Sar]ACPWGPFWCPVN[dA]PGC (linker 4-11-18 via TBMB) [Bicycle Compound 302] has a Ki of 1410 nM. [Sar][Sar]ACPWGPFWCPVNR[dA]GC (linker 4-11-18 via TBMB) [Bicycle Compound 105] showed a Ki of 471 nM. Work on [Sar][Sar]ACPWGPFWCPVNRP[dA]C (linker 4-11-18 via TBMB) [Bicycle Compound 112] yielded a Ki of 110 nM.

What follows are molecules tested against T2, Human EphA2 (Ecto) (Human, UniProt P29317 24-537) (assay: FP competition; tracer Reference Compound B). Details: not given.
T2 construct: extracellular domain; in-house)
Description: (§1) Peptides without a fluorescent tag were tested in competition with a peptide with a fluorescent tag and a known Kd (Table 2). Peptides were diluted to an appropriate concentration in assay buffer as described in the direct binding assay with a maximum of 5% DMSO, then serially diluted 1 in 2. […] Measurements were conducted as for the direct binding assay, however the gain was determined prior to the first measurement. Data analysis was in Systat Sigmaplot version 12.0 where the mP values were fit to a user defined cubic equation to generate a Ki value: […]
T2 sequence (P29317 24-537): as above
In the case of ACYVGKECAYMNVCA (linker 2-8-14 via TATA) [Bicycle Compound Number 29 (TATA scaffold), ACYVGKECAYMNVCA], the Ki is reported as 107 nM. For ACQPSNHCAFMNYCA (linker 2-8-14 via TATA) [Bicycle Compound Number 30 (TATA scaffold), ACQPSNHCAFMNYCA], the Ki was 187 nM. ACSPTPACAVQNLCA (linker 2-8-14 via TATA) [Bicycle Compound Number 31 (TATA scaffold), ACSPTPACAVQNLCA] was tested, and the Ki was 177 nM.

The molecules below were run against T3, Human EphA2 (Homo sapiens, UniProt P29317) (assay: Fluorescence polarisation competition binding assay). Details: read-out: Ki, nM ± 95% CI Human EphA2 Fluorescent peptide Compound 18, Table 9, Ala scan peptides.
T3 construct: EphA2 (Ecto); polyHis (C)
T3 sequence (P29317 24-537 limits assumed): as the sequence (P29317 24-537) above
Description: 1. Fluorescence Polarisation Measurements
(b) Competition Binding Assay
Peptides without a fluorescent tag were tested in competition with a peptide with a fluorescent tag and a known Kd (Table 2). Peptides were diluted to an appropriate concentration in assay buffer as described in the direct binding assay with a maximum of 5% DMSO, then serially diluted 1 in 2. […] Measurements were conducted as for the direct binding assay, however the gain was determined prior to the first measurement. Data analysis was in Systat Sigmaplot version 12.0 where the mP values were fit to a user defined cubic equation to generate a Ki value: f=y min+(y max−y min)/Lig*((Lig*((2*((Klig+Kcomp+Lig+Comp−Prot*c)^2−3*(Kcomp*(Lig−Prot*c)+Klig*(Comp−Prot*c)+Klig*Kcomp))^0.5*COS(ARCCOS((−2*(Klig+Kcomp+Lig+Comp−Prot*c)^3+9*(Klig+Kcomp+Lig+Comp−Prot*c)*(Kcomp*(Lig−Prot*c)+Klig*(Comp−Prot*c)+Klig*Kcomp)−27*(−1*Klig*Kcomp*Prot*c))/(2*(4(Klig+Kcomp+Lig+Comp−Prot*c)^2−3*(Kcomp*(Lig−Prot*c)+Klig*(Comp−Prot*c)+Klig*Kcomp))^3)^0.5)))/3))−(Klig+Kcomp+Lig+Comp−Prot*c)))/((3*Klig)+42*((Klig+Kcomp+Lig+Comp−Prot*c)^2−3*(Kcomp*(Lig−Prot*c)+Klig*(Comp−Prot*c)+Klig*Kcomp))^0.5*COS(ARCCOS((−2*(Klig+Kcomp+Lig+Comp−Prot*c)^3+9*(Klig+Kcomp+Lig+Comp−Prot*c)*(Kcomp*(Lig−Prot*c)+Klig*(Comp−Prot*c)+Klig*Kcomp)−27*(−1*Klig*Kcomp*Prot*c))/(2*(4(Klig+Kcomp+Lig+Comp−Prot*c)^2−3*(Kcomp*(Lig−Prot*c)+Klig*(Comp−Prot*c)+Klig*Kcomp))^3)^0.5)))/3))−(Klig+Kcomp+Lig+Comp−Prot*c)))).
“Lig”, “KLig” and “Prot” were all defined values relating to: fluorescent peptide concentration, the Kd of the fluorescent peptide and EphA2 concentration respectively.
“ADVHCPWGPFWCPV[dA]RPGCA (cysteine pairing not given here) [Compound 155]” gave a Ki of 2 nM. “ADVHCPWGPFWC[dA]VNRPGCA (cysteine pairing not given here) [Compound 154]” was tested, and the Ki was 101 nM.

Same assay, conditions: read-out: Ki, nM ± 95% CI, Human EphA2; competition binding assay; fluorescent peptide Compound 18; TBMB scaffold reference peptides
For “ADVHCPWGPFWCPV[dA]RPGCA (cysteine pairing not given here) [Compound 155]”, the Ki was 2 nM. “ADVHCPWGPFWC[dA]VNRPGCA (cysteine pairing not given here) [Compound 154]” showed a Ki of 101 nM.

The molecules below were run against T2, Human EphA2 (Ecto) (assay: FP competition; tracer Reference Compound A). Details: not given.
Description: as §1
Molecule ACYVGKECAYMNVCA (linker 2-8-14 via TATA) [Bicycle Compound Number 29 (TATA scaffold), ACYVGKECAYMNVCA] has a Ki of 87.7 nM. ACQPSNHCAFMNYCA (linker 2-8-14 via TATA) [Bicycle Compound Number 30 (TATA scaffold), ACQPSNHCAFMNYCA] showed a Ki of 137 nM. For ACTSCWAYPDSFCA (linker 2-5-13 via TATA) [Bicycle Compound Number 32 (TATA scaffold), ACTSCWAYPDSFCA], the Ki was 151 nM.

The molecules below were run against T1, Human EphA2 (Ecto) (assay: FP competition, tracer Compound 18). Details: not given.
Description: as §1
Ac-[Sar][Sar]A[dD]VTCPWGPAWCPVNRPGC (linker 7-14-21 via TBMB′) [Bicycle Compound 173] showed a Ki of 6.69 nM. With ADVHCPWAPFWCPVNRPGCA (linker 5-12-19 via TBMB) [Bicycle Compound 151] the Ki was 394 nM. [Sar][Sar]ACPWGAFWCPVNRPGC (linker 4-11-18 via TBMB) [Bicycle Compound 289] was tested, and the Ki was > 1000 nM. [Sar][Sar]ACPWGPAWCPVNRPGC (linker 4-11-18 via TBMB) [Bicycle Compound 83] showed a Ki of 199 nM. [Sar][Sar]ACPWGPFWCPVNRAGC (linker 4-11-18 via TBMB) [Bicycle Compound 104] gave a Ki of 124 nM. [Sar][Sar]ACPWGPFWCPVNRPAC (linker 4-11-18 via TBMB) [Bicycle Compound 111] showed a Ki of 108 nM. [Sar][Sar]ACPWGPFWCPV[dA]RPGC (linker 4-11-18 via TBMB) [Bicycle Compound 102] was tested, and the Ki was 317 nM. [Sar][Sar]ACPWGPFWCPVN[dA]PGC (linker 4-11-18 via TBMB) [Bicycle Compound 302] was tested, and the Ki was > 1000 nM. Molecule [Sar][Sar]ACPWGPFWCPVNR[dA]GC (linker 4-11-18 via TBMB) [Bicycle Compound 105] has a Ki of 677 nM. In the case of [Sar][Sar]ACPWGPFWCPVNRP[dA]C (linker 4-11-18 via TBMB) [Bicycle Compound 112], the Ki is reported as 89 nM.

Target: T1, Human EphA2 (Ecto)
Test: FP competition, tracer Compound 18
Details: not given
Remark: another data set of the same source
Summary of the method: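 Unlabelled peptides competed against a fluorescently tagged peptide of known Kd. Peptides were diluted in direct-binding assay buffer (≤5% DMSO) and serially diluted 1 in 2. Read as in the direct binding assay, with gain set before the first read; mP values fit to a cubic equation to give Ki.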
With Ac-[Sar][Sar]A[dD]VTCPWGPAWCPVNRPGC (linker 7-14-21 via TBMB′) [Bicycle Compound 173] the Ki was 6.69 nM. ADVHCPWAPFWCPVNRPGCA (linker 5-12-19 via TBMB) [Bicycle Compound 151] was tested, and the Ki was 394 nM.

What follows are molecules tested against T2, Human EphA2 (Ecto) (assay: FP competition; tracer Reference Compound C). Details: not given.
Description: as §1
ACYVGKECAYMNVCA (linker 2-8-14 via TATA) [Bicycle Compound Number 29 (TATA scaffold), ACYVGKECAYMNVCA] gave a Ki of 210 nM. ACSPTPACAVQNLCA (linker 2-8-14 via TATA) [Bicycle Compound Number 31 (TATA scaffold), ACSPTPACAVQNLCA] showed a Ki of 223 nM. For ACTSCWAYPDSFCA (linker 2-5-13 via TATA) [Bicycle Compound Number 32 (TATA scaffold), ACTSCWAYPDSFCA], the Ki was 232 nM.
